For experiment [1], the target named is BSA-glutathione (bovine) (UniProt P02769). Kind of experiment: ELISA, culture supernatant on BSA-GSH plates without mercury. A general note: In an ELISA, binding on a coated surface is turned into a signal by an enzyme label.
For experiment [2] the target is unchanged. Kind of experiment: ELISA, culture fluid on glutathione-BSA (column Glutathione).
Experiment [3] has the same target. Put plainly: ELISA, subclone culture fluid on BSA-glutathione, average of triplicates.

Results on 6 molecules are retold here after patent US5972656.

B1: monoclonal antibody 1C11 (antibody, V domains shown)
VH: SGAELVKPGASVKLSCKTSGYTVTSYWMGWVKQRPGQGLEWIGNIYPDSGTTNYNEKFKNKATLTVDTFSSTVYMQLSSLTSEDSAVYYCARGVYSYYSYDVYAMDYWGQGTSVTVSS
VL: DLVLTQSPPSLAVSLGQRSTISCRSSQSIVHSNGNTYLHWYQQNPGQPPKLLIKYASNLESGVPARFSGSGSGTDFTLNIHPAEVEDSATYFCQHSWEIPPTFGGGTKLEIK
Turning to B1, the absorbance at 405 nm (absorbance at 405 nm) in the experiment with BSA-glutathione (bovine) [1] was 0.094.

B2: monoclonal antibody 2D5 (antibody, V domains shown)
VH: SGGGSVKPGGSLKLSCAASGFTFSSCAMSWVRQTPEKRLEWVATISSGGSYTYYPDSVKGRFTIFRHNAENTLYLQMSSLRSEDTAIYYCVRQDGYYGNYVWFAYWGQGTLVTVSA
VL: ELVMTQSPASLSASVGETVTITCRASENIYGYLAWYQQKQGKSPLPRVYNAKTLAEDVSSRVSGSGSGTQFSLKIRTSQPEDFGTYYCQHHYGTPYTFGGGTKLEIK
The molecule B2 came in with an absorbance at 405 nm (absorbance at 405 nm) with BSA-glutathione (bovine) [1] of 0.09.

B3: monoclonal antibody 5B6 (antibody, V domains shown)
VH: SGGGSVKPGGSLKLSCAASGFTFSSRAMSWVRQTPEKRLEWVATISSGGSYTYYPDSVKGRFTISRHNAENTLYFQMSSLRSEDTAIYYCVRQTGYYGNYEWFAYWGQGLLVTVSA
VL: DIQMTQSPSSLSASLGERVTLTCRASQDIGSSLNWLQLKPDGTIKRLIYATSGLDSGVPKRFSGSRSGSDYSLTINSPESEDFVDYYCLQCSNSPYTFGGGTKLEIN
For B3, in the experiment with BSA-glutathione (bovine) [1], the absorbance at 405 nm (absorbance at 405 nm) worked out at 0.019.

B4: monoclonal antibody 23F8 (antibody, V domains shown)
VH: SGPELVKTGASVKISCKASGYSFTGYYMHWVKQSHGKSLEWIGYISCYNGATSYNQKFKGKATFTVDTSSSTAYMQFNSLTSEDSAVYYCARSGIYDVTTTLTTGAKAPLSQSP
VL: DIQMTQSPSSLSASLGGKVTITCKASQDINKYIAWYQHKPGKGPRLLIHYTSTLQPGIPSRFSGSGSGRDYSFSISNPEPEDIATYYCLQYDNSLFTFGSGTKLEIK
B4 came in with an absorbance at 405 nm (absorbance at 405 nm) with BSA-glutathione (bovine) [1] of 0.168.

B5: monoclonal antibody 4A10 (antibody, V domains shown)
VH: EVQLQQSGPELVKPGALVKISCKASGYTFTSYDINWVKQRPGQGLEWIGWIYPGDGSTKYNEKFKGKATLTADKSSSTAYMQLSSLTSENSAVYFCARCGYAMDYWGQGTSVTVSS
VL: DVLMTQTPLSLPVSLGDQASISCRSSQSIVHSNGNTYLEWYLQKPGQSPKLLIYKVSNRFSGVPDRFSGSGSGTDFTLKISRAEAEDLGVYYCFQGSHVRYTFGGGTKLEIK
For the molecule B5, the absorbance at 405 nm (absorbance at 405 nm) is 0.4 in the experiment with BSA-glutathione (bovine) [2], 0.078 with BSA-glutathione (bovine) [1] and 0.322 with BSA-glutathione (bovine) [3].

B6: monoclonal antibody 5G4 (antibody, V domains shown)
VH: SVPARLKPGASVRISCKASAYSFTGYFMNWMKQSHGKTLEWIGRINPYNGDTFYNQKFKSKATVTVDKSSSTAHMELLSLTSEDSAVYYCGTQPLDYWGQGTTLTVSS
VL: DIQMTQSPSSLSASLGERVTLTCRASQDIGSSLNWLQLKPDGTIKRLIYATSGLDSGVPKRFSGSRSGSDYSLTINSPESEDFVDYYCLQCSNSPYTFGGGTKLEIK
The molecule B6 registered an absorbance at 405 nm (absorbance at 405 nm) with BSA-glutathione (bovine) [1] of 0.028.
